Measurements published in FireProtDB (doi:10.1021/bi00197a024).
“And” between values parts separate entries of the source, which are not always exact repeats. Equal entries are not always repeated.

Conditions: Saccharomyces cerevisiae (strain ATCC 204508 / S288c), Thermal, DSC, reversible: yes, whole UniProt chain shown

B1: Cytochrome c mitochondrial import factor CYC2 wild type, P38909 (protein)
chain: MLWKNYVLSSSRITRRLHKSPRKSSFSKNFFITGCLLTVGAVSSYLTYRYTSERENKHELSPSYFVKYKISHKRDIDSSHFLLEVTPLFKQKVNIWSLMTAENLWSVEIKQPEVMVVRNYTPLPLKFNPASKEIEILKDGDNADGKLSFYIKKYENGEVARWLHHLPKGHIIEIRGPFIDYEFPHLPNELKRSRDCLYMDNRNERGNNVRENSQFIYQPYDIMMFTAGTGIVTALQLLLTESPFRGTIKLFHTDKNIKQLGPLYPILLRLQASNRVQLKIFETDRQTKQDVLKSIQKSITKPYPYKGLLPFSNVNNKNIMPVLALVCGPESYISSISGRKYDLNQGPVGGLLSKEGWNSDNVYKLS
Tm (pH 3.5, Sodium acetate 0.1 M): 39 °C
unfolding enthalpy (calorimetric) (pH 3.5, Sodium acetate 0.1 M): 53.7 kcal/mol
unfolding enthalpy (van 't Hoff) (pH 3.5, Sodium acetate 0.1 M): 67.7 kcal/mol
Tm (pH 4, Sodium acetate 0.1 M): 43.7 °C
unfolding enthalpy (calorimetric) (pH 4, Sodium acetate 0.1 M): 62.7 kcal/mol
unfolding enthalpy (van 't Hoff) (pH 4, Sodium acetate 0.1 M): 75.9 kcal/mol
Tm (pH 5, Sodium phosphate 0.1 M): 54.9 °C and 53.1 °C
unfolding enthalpy (calorimetric) (pH 5, Sodium phosphate 0.1 M): 73.4 kcal/mol and 71.2 kcal/mol
unfolding enthalpy (van 't Hoff) (pH 5, Sodium phosphate 0.1 M): 93.2 kcal/mol and 92.9 kcal/mol
Tm (pH 6, Sodium phosphate 0.1 M): 54.5 °C
unfolding enthalpy (calorimetric) (pH 6, Sodium phosphate 0.1 M): 67.4 kcal/mol
unfolding enthalpy (van 't Hoff) (pH 6, Sodium phosphate 0.1 M): 91.7 kcal/mol
